This is an account of results in patent US20080181899A1 (Regeneron, published 2008).

For orientation: Kd means the free concentration of one partner at which half of the binding sites on the other are occupied at equilibrium, for simple one-to-one binding.

One assay concerns the target T1, hDII4-mFc (human, UniProt Q9NR61 27-524).
T1 construct: also called dimeric DII4-mFc; not shown: mouse Fc
Put plainly: SPR BIACORE; antibody captured by anti-hFc; dimeric DII4-mFc analyte. Here is the method:
Equilibrium dissociation constants (KD values) for antigen binding to the selected antibodies described above were determined by surface kinetics on a real-time biosensor surface plasmon resonance assay (BIACORE™ 2000). The antibody was captured on a goat anti-mouse IgG polyclonal antibody surface created through direct chemical coupling to a BIACORE™ chip to form a captured antibody surface. […] Kinetic analysis was performed to calculate KD, dissociation rate constants, and half-life of antigen/antibody complex dissociation (Table 1). […] Antibodies were presented by goat anti-hFc polyclonal antibody reagent (Jackson Immuno Research Lab) immobilized on BIACORE™ chip, and exposed to either dimeric DII4-mFc or monomeric DII4 protein (Table 2).
In general terms: In SPR one partner is held on a chip, and binding of the other changes the refractive index at the surface.

For a further assay, the target named is dimeric hDII4-hFc (human, UniProt Q9NR61 27-524, biotin in Example 3 (biotin-DII4-hFc), site not stated). Put plainly: cell-based or functional assay.
Chain of dimeric hDII4-hFc (Q9NR61 27-524 limits assumed): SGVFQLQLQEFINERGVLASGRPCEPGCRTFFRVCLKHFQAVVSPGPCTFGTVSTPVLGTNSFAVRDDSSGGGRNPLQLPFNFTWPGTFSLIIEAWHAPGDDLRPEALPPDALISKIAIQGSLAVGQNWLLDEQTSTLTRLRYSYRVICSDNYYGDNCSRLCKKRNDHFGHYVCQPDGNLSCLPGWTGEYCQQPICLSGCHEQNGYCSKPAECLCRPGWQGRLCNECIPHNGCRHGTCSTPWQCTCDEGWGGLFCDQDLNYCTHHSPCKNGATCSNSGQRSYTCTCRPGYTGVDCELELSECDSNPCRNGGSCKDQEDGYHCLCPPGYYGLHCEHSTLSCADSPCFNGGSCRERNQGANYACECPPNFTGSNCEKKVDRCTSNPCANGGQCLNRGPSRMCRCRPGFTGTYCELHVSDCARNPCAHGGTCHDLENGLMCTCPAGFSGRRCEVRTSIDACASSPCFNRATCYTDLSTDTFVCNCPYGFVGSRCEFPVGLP

T1 sequence (Q9NR61 27-524 limits assumed): as above

B1: 318518-01A10-D8 (antibody, human IgG1)
heavy: not shown
VL: EIVMTQSPATLSLSPGERATLSCRASQSVSSYLAWYQQKPGQAPRLLIYDASNRATGIPARFSGSGSGTDFTLTISSLEPEDFAVYYCQHRSNWPPTFGGGTKVEIK
notes: HCVR 429 with hIgG1 constant region 950; also called REGN281; 318518-1A10-D8
For B1, in the assay with hDII4-mFc, the affinity, expressed as Kd, was 0.018 nM. In the assay with dimeric hDII4-hFc, the “HUVEC proliferation assay IC50” value is 0.096 nM.
